From article PMC2877039 (Developmental cell, 2010)

T1: His6-tagged full-length Sec15 protein (yeast, UniProt P22224 1-910)
T1 sequence (looked up): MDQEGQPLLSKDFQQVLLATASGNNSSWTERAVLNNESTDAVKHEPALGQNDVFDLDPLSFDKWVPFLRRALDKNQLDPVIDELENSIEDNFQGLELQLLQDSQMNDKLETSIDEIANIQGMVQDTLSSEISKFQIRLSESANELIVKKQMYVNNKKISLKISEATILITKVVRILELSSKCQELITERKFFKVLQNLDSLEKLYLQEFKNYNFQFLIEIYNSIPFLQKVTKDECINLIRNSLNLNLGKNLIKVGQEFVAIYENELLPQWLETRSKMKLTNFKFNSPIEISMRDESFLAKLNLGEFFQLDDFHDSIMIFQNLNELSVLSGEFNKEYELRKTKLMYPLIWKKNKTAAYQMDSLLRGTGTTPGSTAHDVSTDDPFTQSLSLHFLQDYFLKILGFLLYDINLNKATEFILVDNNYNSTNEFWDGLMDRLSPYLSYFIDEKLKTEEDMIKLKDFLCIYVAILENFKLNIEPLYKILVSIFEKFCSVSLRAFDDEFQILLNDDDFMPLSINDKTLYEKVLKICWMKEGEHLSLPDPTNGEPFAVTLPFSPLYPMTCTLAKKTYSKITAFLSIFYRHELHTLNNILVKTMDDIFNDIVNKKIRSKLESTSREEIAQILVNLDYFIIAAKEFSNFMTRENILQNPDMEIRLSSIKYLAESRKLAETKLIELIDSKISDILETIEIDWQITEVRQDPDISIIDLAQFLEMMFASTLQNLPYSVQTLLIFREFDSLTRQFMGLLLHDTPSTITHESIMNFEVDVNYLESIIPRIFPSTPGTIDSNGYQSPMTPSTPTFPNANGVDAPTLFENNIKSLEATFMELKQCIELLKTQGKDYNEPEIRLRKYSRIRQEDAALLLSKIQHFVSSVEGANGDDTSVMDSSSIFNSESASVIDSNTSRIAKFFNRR

B1: Sec15p C-terminal fragment (a.a. 559–910) (domain or fragment, yeast, UniProt P22224 559-910, looked up)
chain: MTCTLAKKTYSKITAFLSIFYRHELHTLNNILVKTMDDIFNDIVNKKIRSKLESTSREEIAQILVNLDYFIIAAKEFSNFMTRENILQNPDMEIRLSSIKYLAESRKLAETKLIELIDSKISDILETIEIDWQITEVRQDPDISIIDLAQFLEMMFASTLQNLPYSVQTLLIFREFDSLTRQFMGLLLHDTPSTITHESIMNFEVDVNYLESIIPRIFPSTPGTIDSNGYQSPMTPSTPTFPNANGVDAPTLFENNIKSLEATFMELKQCIELLKTQGKDYNEPEIRLRKYSRIRQEDAALLLSKIQHFVSSVEGANGDDTSVMDSSSIFNSESASVIDSNTSRIAKFFNRR
B2: GST-Sec2p (wild type) (natural protein, yeast, UniProt P17065 1-759, looked up)
chain: MDASEEAKRVSIQVTSLSTQLIESVDKQSHLEEQLNKSLKTIASQKAAIENYNQLKEDYNTLKRELSDRDDEVKRLREDIAKENELRTKAEEEADKLNKEVEDLTASLFDEANNMVADARKEKYAIEILNKRLTEQLREKDTLLDTLTLQLKNLKKVMHSLDNESTVTNNSNRYSTILSDSATSSSTSLNKVPTSYSLASQDIYSGIVYSPSISSIRYDISLYNEFLKFVAALPRCENIKATSTESKLIRRLVNDEIQPILKIDNASGIGWLVKKTLLSLIIDGLVVVEPLSGVNATYQIGYNSSSPAKQATSNMPKMFKFPLDSPPVAVHAACSFCGESRDDIIEHARMYILKTLHKTDDGKEQVTNTYPLCHWCLLKLRQTCEIFAFLRSLKVGAWHLEKLTTQNITKEDLEKFSEVTKHTKRDGRVSSQDKKTKRLSFMAGLGINSSTKNKPKMEIFSSETNAKPGQPTTNIQRAWLQLCKLRCILHWTHIGIWAVDDSISSKIGPLVEDDSDEDQNDAISVRLQDKALWKQDAKRPFSSSSAEESQKSDAFDFESGDMENEITGESSSDESSSDGSSTDNSTADSSSEDESSLADSTTSSADSSSPESIDNGEGDDTVTKDDKSSIKSANNNEENSDCGDKKGRSIIKKKAPQRKIQKKKLLQDLDDLEEQFREESAIDQTEFENAESNVKQNISSKRASSGDENSKKDNNEKTLKTNLTIGDKTQEQIGENSPSSGLHASSSNDDNFDDAQEQQ

How the values were obtained:
[1] = molecular target: B2; experiment: pull-down
[2] = molecular target: T1, His6-tagged full-length Sec15 protein; experiment: pull-down

Row | binding result [1] | binding result [2] | Binder
1 | binds |  | B1
2 |  | binds | B2
